Assay results published in patent US20190016816A1 (APTEVO RESEARCH AND DEVELOPMENT, published 2019).
Where a chain is given by its changes, count along the chain named. Each block holds one binder with its values, some of them ahead of it.

What was measured:
human CD137 on cells [1] = biological target: T1, human CD137 on cells (human, UniProt Q07011 24-255); assay: cell-based or functional assay
human 5T4 on cells [2] = biological target: T2, human 5T4 on cells (human, UniProt Q13641 32-420); assay: flow cytometry, CHO-K1 cells expressing human 5T4, labelled anti-human IgG secondary, MFI (mean)
T2 construct: also called TPBG; hu5T4
T2 sequence: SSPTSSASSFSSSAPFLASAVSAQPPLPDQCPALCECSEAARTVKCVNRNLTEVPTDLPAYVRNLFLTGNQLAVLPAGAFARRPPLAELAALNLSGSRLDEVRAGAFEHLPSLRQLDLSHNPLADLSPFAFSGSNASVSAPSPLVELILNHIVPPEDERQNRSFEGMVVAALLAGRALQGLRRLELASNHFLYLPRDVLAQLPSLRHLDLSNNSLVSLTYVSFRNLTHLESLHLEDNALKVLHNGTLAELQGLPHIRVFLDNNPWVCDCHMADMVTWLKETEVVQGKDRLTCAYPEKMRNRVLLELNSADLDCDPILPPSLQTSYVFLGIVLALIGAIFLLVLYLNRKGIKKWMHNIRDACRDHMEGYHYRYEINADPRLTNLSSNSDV
Protocol: (§1) Binding studies were performed by standard flow cytometry-based staining procedures two cell lines expressing 5T4:CHO-K1 cells (obtained from Alligator) transduced with human or cynomolgus macaque 5T4 and SKOV-3 human ovarian adenocarcinoma cells which express (human) 5T4. All labeling and washes were performed in U-bottom 96-well plates in saline buffer with 0.1% BSA and 2 mM EDTA. Cell were plated at approximately 100,000 cells per well and incubated with a range of 100 nM to 0.05 nM concentrations of test molecules in […], for 30 minutes on ice. Cells were washed three times then incubated for another 30 min on ice with fluorescently-labeled secondary polyclonal antibody, F(ab′)² goat anti-human IgG (Jackson ImmunoResearch Laboratories). The cells were then washed twice and the samples acquired in a BD LSRII or a Symphony A3 flow cytometer. The sample files were analyzed using FlowJo software; the mean fluorescence intensity (MFI-mean) or median fluorescence intensity (MFI-median) of the live population of cells in each well was calculated after gating on live cells (forward vs side scatter). Nonlinear regression analysis to determine EC₅₀ values was performed in GraphPad Prism 6® graphing and statistics software.

human CD137 on cells [3] = biological target: T1, human CD137 on cells; assay: flow cytometry, CHO-K1 cells expressing human CD137, PE anti-human IgG Fc secondary, MFI (median)
Protocol: (§2) Binding studies on CHO-K1 cells lines expressing CD137 were performed by standard flow cytometry-based staining procedures. CHO-K1 cells (generated by Alligator) were transfected with human or cynomolgus macaque CD137. A typical experiment would label approximately 100,000 cells per well, in 96-well plates, with a range of 100 nM to 0.05 nM binding molecule in 50 μL of saline buffer with 2% BSA and 2 mM EDTA, for 30 min on ice, followed by washes and incubation with PE-labeled secondary antibody, goat anti-human IgG Fcγ ([…]), for 20 minutes on ice. Signal from bound molecules was detected using a LSR-II™ or a Symphony A3 flow cytometer (BD Biosciences) and analyzed by FlowJo flow cytometry analysis software. Median fluorescence intensity (MFI-median) of bound molecules on live cells was determined after exclusion of doublets cells. Nonlinear regression analysis to determine EC₅₀ values was performed in GraphPad Prism 6® graphing and statistics software.

[4] = biological target: T3, cynomolgus CD137 on cells (cynomolgus macaque, UniProt A9YYE7 24-254); assay: flow cytometry, CHO-K1 cells expressing cynomolgus CD137, PE anti-human IgG Fc secondary, MFI (median)
T3 construct: whole, on cells; also called CHO-K1/cynomolgus CD137 cell line; cynomolgus monkey CD137 on CD3-stimulated primary CD8 T cells
Protocol: as §2

cynomolgus 5T4 on cells = biological target: T4, cynomolgus 5T4 on cells (cynomolgus macaque, UniProt Q4R8Y9 35-420); assay: flow cytometry, CHO-K1 cells expressing cynomolgus 5T4, labelled anti-human IgG secondary, MFI (median)
T4 construct: whole, on cells; also called CHO-K1/cynomolgus 5T4 transfectants
T4 sequence (looked up): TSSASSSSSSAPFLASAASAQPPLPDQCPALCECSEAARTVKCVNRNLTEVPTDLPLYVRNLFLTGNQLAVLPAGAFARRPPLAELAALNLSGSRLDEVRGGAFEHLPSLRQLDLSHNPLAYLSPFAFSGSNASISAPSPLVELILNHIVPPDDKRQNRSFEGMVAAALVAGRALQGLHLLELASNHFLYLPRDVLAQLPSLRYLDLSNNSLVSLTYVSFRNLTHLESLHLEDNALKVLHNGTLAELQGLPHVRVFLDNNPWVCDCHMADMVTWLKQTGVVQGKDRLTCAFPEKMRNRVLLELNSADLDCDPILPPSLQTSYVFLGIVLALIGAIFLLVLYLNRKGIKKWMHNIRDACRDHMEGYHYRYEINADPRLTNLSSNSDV
Protocol: as §1

human 5T4 on cells [5] = biological target: T2, human 5T4 on cells; assay: flow cytometry, SKOV-3 cells (endogenous human 5T4), labelled anti-human IgG secondary, MFI (mean)
Protocol: as §1

T3 sequence (A9YYE7 entry or part of it): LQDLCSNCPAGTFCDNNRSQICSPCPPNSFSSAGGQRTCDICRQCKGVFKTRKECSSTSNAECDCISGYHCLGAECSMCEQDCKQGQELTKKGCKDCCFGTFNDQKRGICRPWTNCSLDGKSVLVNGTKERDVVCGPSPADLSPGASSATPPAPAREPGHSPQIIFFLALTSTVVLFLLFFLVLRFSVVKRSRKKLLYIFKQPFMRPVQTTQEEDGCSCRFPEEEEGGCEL
T1 sequence (Q07011 24-255 limits assumed): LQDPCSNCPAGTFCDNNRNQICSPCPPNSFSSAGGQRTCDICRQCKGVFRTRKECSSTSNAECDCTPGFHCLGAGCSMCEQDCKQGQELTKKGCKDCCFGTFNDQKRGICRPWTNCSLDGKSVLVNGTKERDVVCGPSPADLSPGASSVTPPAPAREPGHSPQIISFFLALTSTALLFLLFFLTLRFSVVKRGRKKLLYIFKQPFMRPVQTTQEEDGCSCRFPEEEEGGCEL

CD137 reporter assay with HCC1143 cells, EC50 against ALG.APV-006 and ALG.APV-004 (human CD137 on cells [1]): ≤ 6 fold lower EC50
EC50 (human 5T4 on cells [2]): 10.9 nM
Maximum MFI (human 5T4 on cells [2]): 14100
EC50 (human CD137 on cells [3]): 1.1 nM
EC50 [4]: 1.7 nM
EC50 (cynomolgus 5T4 on cells): 22 nM
Maximum MFI (cynomolgus 5T4 on cells): 25100
B1: ALG.APV-191 (bispecific antibody)
chain: EVQLLESGGGLVQPGGSLRLSCAASGFTFDYGSMYWVRQAPGKGLEWVSSISSGSGSTYYADSVKGRFTISHDNSKNTLYLQMNSLRAEDTAVYYCARSSYYGSYYSIDYWGQGTLVTVSSGGGGSGGGGSGGGGSGGGGSDIQMTQSPSSLSASVGDRVTITCRASQSISSYLNWYQQKPGKAPKLLIYAASSLHSGVPSRFSGSGSGTDFTLTISSLQPEDFATYYCQQYYDNLPTFGQGTKLEIKSSEPKSSDKTHTCPPCPAPEAAGAPSVFLFPPKPKDTLMISRTPEVTCVVVDVSHEDPEVKFNWYVDGVEVHNAKTKPREEQYNSTYRVVSVLTVLHQDWLNGKEYKCAVSNKALPAPIEKTISKAKGQPREPQVYTLPPSRDELTKNQVSLTCLVKGFYPSDIAVEWESNGQPENNYKTTPPVLDSDGSFFLYSKLTVDKSRWQQGNVFSCSVMHEALHNHYTQKSLSLSPGSGGGGSGGGGSGGGGSPSEVQLLESGGGLVQPGGSLRLSCAASGFTFSSYAMSWVRQAPGKCLEWVSAISGSGGSTYYADSVKGRFTISRDNSKNTLYLQMNSLRAEDTAVYYCARYYGGYYSAWMDYWGQGTLVTVSSGGGGSGGGGSGGGGSGGGGSDIQMTQSPSSLSASVGDRVTITCRASQSISSFLNWYQQKPGKAPKLLIYAASSLQSGVPSRFSGSGSGTDFTLTISSLQPEDFATYYCQQTYGYLHTFGCGTKLEIKS
notes: Optimized ADAPTIR scFv-Fc-scFv homodimer

CD137 reporter assay with HCC1143 cells, EC50 against ALG.APV-006 and ALG.APV-004 (human CD137 on cells [1]): ≤ 6 fold lower EC50
EC50 (human 5T4 on cells [2]): 3.1 nM
Maximum MFI (human 5T4 on cells [2]): 13200
EC50 (human CD137 on cells [3]): 1 nM
EC50 (human 5T4 on cells [5]): 1.8 nM
Maximum MFI (human 5T4 on cells [5]): 1070
EC50 [4]: 1.8 nM
EC50 (cynomolgus 5T4 on cells): 7 nM
Maximum MFI (cynomolgus 5T4 on cells): 20600
B2: ALG.APV-198 (bispecific antibody)
chain: B1 chain with D30S, Y31H, H196Q, T527D, S529E, S670R, F672A, S748R
notes: as for B1

CD137 reporter assay with HCC1143 cells, EC50 against ALG.APV-006 and ALG.APV-004 (human CD137 on cells [1]): ≤ 6 fold lower EC50
EC50 (human 5T4 on cells [2]): 3.4 nM
Maximum MFI (human 5T4 on cells [2]): 13500
EC50 (human CD137 on cells [3]): 0.9 nM
EC50 (human 5T4 on cells [5]): 1.7 nM
Maximum MFI (human 5T4 on cells [5]): 1130
EC50 [4]: 1.8 nM
EC50 (cynomolgus 5T4 on cells): 7 nM
Maximum MFI (cynomolgus 5T4 on cells): 21100
B3: ALG.APV-196 (bispecific antibody)
chain: B1 chain with D30S, H196Q, T527D, S529E, S670R, F672A, S748R
notes: as for B1
